Here are results for four molecules from PMC10192343, “Structural and functional analyses of the echinomycin resistance conferring protein Ecm16 from Streptomyces lasalocidi” (Scientific Reports, 2023).

Data set [1] concerns the target Ecm16* (Streptomyces lasalocidi (insertion domain from Streptomyces peucetius DrrC)) (UniProt Q0X0A9). As to the kind of experiment: fluorescence polarization. Particulars: apparent KD, Hill fit, FP: 50 mM HEPES pH 7.5, 50 mM NaCl, 50 nM DNA, 4-512 nM protein, temperature not stated, EMSA: same buffer plus 0.1 mg/ml BSA. On the technique in general: In fluorescence polarisation assays a small probe gives low polarisation when free and higher when bound to something large.

For a further data set, the target named is T1, UvrA (Thermotoga maritima, UniProt Q9WYV0).
T1 construct: pET28a(+) construct, E. coli Rosetta (DE3) pLysS, His-Trap purified, no tag cleavage mentioned
T1 sequence (Q9WYV0 1-916): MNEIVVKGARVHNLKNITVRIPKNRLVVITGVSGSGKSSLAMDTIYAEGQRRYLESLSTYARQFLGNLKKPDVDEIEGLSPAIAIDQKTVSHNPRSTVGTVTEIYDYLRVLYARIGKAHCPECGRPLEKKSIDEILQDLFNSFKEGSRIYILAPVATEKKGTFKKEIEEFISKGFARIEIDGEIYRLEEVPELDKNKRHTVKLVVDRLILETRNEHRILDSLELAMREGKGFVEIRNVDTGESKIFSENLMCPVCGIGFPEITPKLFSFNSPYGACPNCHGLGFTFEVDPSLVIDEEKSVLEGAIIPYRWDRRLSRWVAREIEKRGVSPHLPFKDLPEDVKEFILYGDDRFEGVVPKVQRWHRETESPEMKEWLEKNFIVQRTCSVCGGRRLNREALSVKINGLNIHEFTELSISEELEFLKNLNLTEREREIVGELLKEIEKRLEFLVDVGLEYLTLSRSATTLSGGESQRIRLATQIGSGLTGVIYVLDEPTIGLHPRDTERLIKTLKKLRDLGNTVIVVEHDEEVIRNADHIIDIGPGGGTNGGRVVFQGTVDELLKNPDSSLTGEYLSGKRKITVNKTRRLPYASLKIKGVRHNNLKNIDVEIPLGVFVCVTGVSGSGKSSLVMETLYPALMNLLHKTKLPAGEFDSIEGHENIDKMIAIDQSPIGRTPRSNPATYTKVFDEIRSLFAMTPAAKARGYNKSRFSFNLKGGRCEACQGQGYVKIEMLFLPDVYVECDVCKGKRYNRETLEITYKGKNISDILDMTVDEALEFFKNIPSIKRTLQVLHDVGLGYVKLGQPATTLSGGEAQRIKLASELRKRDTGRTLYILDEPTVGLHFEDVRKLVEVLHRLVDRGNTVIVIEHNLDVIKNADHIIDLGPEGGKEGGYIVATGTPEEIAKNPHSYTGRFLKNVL
Description: ATPase, EnzChek phosphate assay (MESG/PNP, […] nm). The format is biochemical. Particulars: 1 µM echinomycin-DNA or DNA, 50 mM HEPES pH 7.5, 50 mM NaCl, 10 mM MgCl2, 22 °C.

Data set [2] concerns the target Ecm16 (Streptomyces lasalocidi, UniProt Q0X0A9). Particulars: 1 µM echinomycin-DNA or DNA, 50 mM HEPES pH 7.5, 50 mM NaCl, 10 mM MgCl2, 22 °C.
Data set [3] deals with the molecule itself. As to the kind of experiment: crystal structure; hanging drop vapour diffusion at 18 °C; 8 mg/ml Ecm16, 10 mM MgCl2, 1 mM ADP mixed with 0.1 M MES pH 6.5, 0.2 M sodium thiocyanate, 12% PEG 20K; 2.0 Å; homodimer in the model.
The target of data set [4] is T2, Ecm16 (Streptomyces lasalocidi, UniProt Q0X0A9 1-792).
T2 sequence: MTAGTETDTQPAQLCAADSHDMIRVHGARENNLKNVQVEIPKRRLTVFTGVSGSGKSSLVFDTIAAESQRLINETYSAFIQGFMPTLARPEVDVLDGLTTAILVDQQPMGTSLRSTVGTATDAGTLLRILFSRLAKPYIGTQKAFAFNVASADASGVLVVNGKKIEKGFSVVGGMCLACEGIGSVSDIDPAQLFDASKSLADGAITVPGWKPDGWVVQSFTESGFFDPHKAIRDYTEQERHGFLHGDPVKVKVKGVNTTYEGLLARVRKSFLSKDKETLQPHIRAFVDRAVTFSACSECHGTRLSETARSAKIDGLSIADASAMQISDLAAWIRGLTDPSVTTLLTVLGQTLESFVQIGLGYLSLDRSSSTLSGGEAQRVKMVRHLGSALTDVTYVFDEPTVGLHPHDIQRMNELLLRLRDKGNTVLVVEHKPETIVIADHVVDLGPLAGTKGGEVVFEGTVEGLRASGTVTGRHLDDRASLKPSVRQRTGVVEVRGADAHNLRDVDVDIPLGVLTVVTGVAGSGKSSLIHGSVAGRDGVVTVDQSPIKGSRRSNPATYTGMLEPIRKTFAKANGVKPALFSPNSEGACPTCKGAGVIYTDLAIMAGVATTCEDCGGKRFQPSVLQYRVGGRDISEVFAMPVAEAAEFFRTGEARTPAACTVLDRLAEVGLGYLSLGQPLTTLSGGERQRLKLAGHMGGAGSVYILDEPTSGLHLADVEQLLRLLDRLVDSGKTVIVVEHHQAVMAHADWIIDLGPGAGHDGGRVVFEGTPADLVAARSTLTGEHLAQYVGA
Description: fluorescence polarization; no echinomycin; apparent KD, Hill fit; FP: 50 mM HEPES pH 7.5, 50 mM NaCl, 50 nM DNA, 4-512 nM protein, temperature not stated; EMSA: same buffer plus 0.1 mg/ml BSA, 50 nM DNA, echinomycin:DNA 1.1:1, 15 min at room temperature, 6% native gel at 4 °C. Particulars: protein: recombinant; tags: His (pET28a, Ni-NTA); chain copies: 2; label: 5'-FAM on both strands; blunt; self-complementary.

The target in data set [5] is T2, Ecm16. Description: fluorescence polarization; echinomycin-bound DNA; apparent KD, Hill fit; FP: 50 mM HEPES pH 7.5, 50 mM NaCl, 50 nM DNA, 4-512 nM protein, temperature not stated; EMSA: same buffer plus 0.1 mg/ml BSA, 50 nM DNA, echinomycin:DNA 1.1:1, 15 min at room temperature, 6% native gel at 4 °C. Particulars: protein: recombinant; tags: His (pET28a, Ni-NTA); chain copies: 2; label: 5'-FAM on both strands; blunt; self-complementary.

Marks after values point to notes of the source that are not given here.

As to “AGTGATCAGTGGTTACGTAACCACTGATCACT (double strand) [FAM 32-bp DNA]”, the figures for the Kd in data set [1] (echinomycin-bound DNA) and in data set [1] (no echinomycin) were 37.7 nM and 90.8 nM, respectively.

Turning to `Nc1ncnc2c1ncn2[C@@H]1O[C@H](COP(=O)(O)OP(=O)(O)OP(=O)(O)O)[C@@H](O)[C@H]1O` [ATP], the “ATPase, EnzChek phosphate assay (MESG/PNP, 360 nm)” value at UvrA was “Ecm16* and UvrA showed a similar basal ATPase activity for all four DNA substrates”; on Ecm16 [2], “we measured the ATP hydrolysis activity of Ecm16, Ecm16-ΔID, Ecm16*, and UvrA”.

B1: Ecm16 from Streptomyces lasalocidi (natural protein)
chain: T2 sequence
notes: Ecm16, UvrA-like self-resistance protein of the echinomycin biosynthetic gene cluster, Streptomyces lasalocidi (formerly S. lasaliensis); codon-optimised gene in pET28a(+) between NdeI and EcoRI; cloning by NdeI into pET28a(+) would put a His tag on the N-terminus (surmised); also called WT Ecm16; echinomycin resistance conferring protein Ecm16; source: E. coli BL21 (DE3), purified (Ni-NTA, …)
For orientation: stoichiometry N means a count of units in the complex or per binding partner. Regarding B1, the “stoichiometry N” value in data set [3] is 2.

B2: FAM 32-bp DNA (dsDNA)
DNA 1: AGTGATCAGTGGTTACGTAACCACTGATCACT
DNA 2: B2 DNA 1
Regarding B2, the Kd with Ecm16 [4] was 60.2 ± 2.1 nM; in the data set with Ecm16 [5] it was 11.8 ± 1.7 nM.
